Source: PMC5442856, “A bacterial negative transcription regulator binding on an inverted repeat in the promoter for epothilone biosynthesis”

Target: T1, Esi (His-Esi) (Sorangium cellulosum So0157-2, UniProt UPI000354DD11 1-373)
T1 sequence: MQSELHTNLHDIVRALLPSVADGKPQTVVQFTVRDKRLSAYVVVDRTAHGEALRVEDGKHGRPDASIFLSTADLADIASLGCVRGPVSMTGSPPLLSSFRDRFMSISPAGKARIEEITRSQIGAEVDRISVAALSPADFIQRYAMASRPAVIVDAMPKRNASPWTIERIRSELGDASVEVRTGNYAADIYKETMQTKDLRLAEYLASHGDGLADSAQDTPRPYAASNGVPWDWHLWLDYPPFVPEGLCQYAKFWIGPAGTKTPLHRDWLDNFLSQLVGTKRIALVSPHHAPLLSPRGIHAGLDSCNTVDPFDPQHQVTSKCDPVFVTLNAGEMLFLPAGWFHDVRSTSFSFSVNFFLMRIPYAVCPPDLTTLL
Test: EMSA; poly(dI-dC) competitor; increasing His-Esi; 12 pmol DNA; EMSA: 25 uL with 2.5 uL of 10x buffer (final about 12 mM HEPES, 4 mM Tris, 60 mM KCl, 5 mM MgCl2, 0.1 mM EDTA, pH 8.0), 1 uL glycerol buffer (20% glycerol, 20 mM HEPES), poly(dI-dC), remainder protein and 50 mM NaH2PO4; 30 C, 30 min; 5% native PAGE in TGE pH 8.0 at 4 C
Conditions: protein: recombinant; tags: N-terminal 6xHis (pET-28a); blunt

B1: 17-bp operator of epothilone promoter (dsDNA)
DNA 1: GGGACGAGCTAATTCCC
DNA 2: GGGAATTAGCTCGTCCC
binding result: binds
